Here are results for four molecules from patent US20200277405A1, “COMPOSITION FOR ANTIBODY-DRUG CONJUGATE DIRECTED AGAINST TUMOR-CELL ASSOCIATED POLYSIALIC ACID” (Cornell University, priority 2019, published 2020).

The subject of experiment [1] is MCF7 (polySia negative externally) cells. Put plainly: Internalization of scFv735, MCF7. In kind it is cell-based, human. To be noted: MCF7, 2 hours, 0-1,000 nM. An excerpt:
(§1) FIG. 15 depicts cellular internalization of a polySia-specific single-chain Fv (scFv735) constructed by genetically fusing together the DNA encoding the variable heavy (VH) and variable light (VL) genes derived from mo735 with a flexible GlySer linker.
(§2) A polySia-specific single-chain […] (scFV735) was constructed by genetically fusing together the DNA encoding the variable heavy (VH) and variable light (VL) genes derived from mo735 with a flexible GlySer linker. Alexa Fluor 488 labeled scFv735 was incubated with SW2 (polySia positive externally) and MCF7 (polySia negative externally) cells for 2 hours at different concentrations ranging from 0-1,000 nM at either 4° C. or 37° C. (internalization). After incubation, the cells were washed and extracellular fluorescence was quenched with 0.2% Trypan Blue. Intracellular Fluoresence (geometric mean fluorescence intensity, MFI) indicative of internalized scFv735 was measured by flow cytometery.

The test system of experiment [2] is SW2 (polySia positive externally) cells. Put plainly: Internalization of scFv735, SW2. The class given is cell-based, human.
Source text: as §1, §2

For experiment [3] the following is noted: Nagae et al.; cited from earlier work.
Experiment [4] concerns the target chicken brain-derived polysialylated neural cell adhesion molecule (NCAM) (chicken) (UniProt P13590). Put plainly: ELISA, NCAM coated on the plate, ch735 titrated (x axis 'ch735 [ng/mL]'), HRP secondary, Abs450. A general note: An ELISA detects its analyte on a solid surface through an enzyme-linked reagent.
Experiment [5] shares this target. Description: SPR (Biacore 3000), antibody captured on Protein A chip, NCAM 0.25-250 nM in solution, equilibrium fit with Hill slope. (In general: Surface plasmon resonance follows binding to a sensor surface in real time, without labels.)
For experiment [6] the target is unchanged. Description: ELISA, chicken brain NCAM coated on the plate, ch735 titrated, anti-human IgG secondary, Abs370.
The target is the same in experiment [7]. Put plainly: ELISA, chicken brain NCAM coated on the plate, mo735 titrated, anti-mouse IgG secondary, Abs370.
Experiment [8] concerns the target NCAM (Homo sapiens, UniProt P13591). To be noted: Target NCAM; literature; cited from earlier work.

“Also recorded” adds a separate entry of the source.

B1: scFv735: polySia-specific single-chain Fv fusing VH and VL of mo735 with a flexible GlySer linker (protein)
scFv: DVVMTQTPLSLPVSLGDQASISCRSSQSLVHSNGNTYLYWYLQKPGQSPKPLIYRVSNRFSGVPDRFSGSGSGTDFTLKISRVEAEDLGVYFCFQGTHVPYTFGGGTRLEIKGGGGSGGGGSGGGGSQIQLQQSGPELVRPGASVKISCKASGYTFTDYYIHWVKQRPGEGLEWIGWIYPGSGNTKYNEKFKGKATLTVDTSSSTAYMQLSSLTSEDSAVYFCARGGKFAMDYWGQGTSVTVSS
Regarding B1, the “internalization (intracellular fluorescence)” value in experiment [1] is “not”; in experiment [2] (SW2, 2 hours, 0-1,000 nM, 37° C.), “observed to internalize; also recorded: increase with increasing concentration”; in experiment [2] (temperature reduced to 4° C.), “blocked”. In addition, in experiment [3], the “degree of polymerization (DP) of shorter sialic acids bound” value is reported as around 3.

B2: chimeric human IgG1 mAb ch735 (antibody, V domains shown)
VH: QIQLQQSGPELVRPGASVKISCKASGYTFTDYYIHWVKQRPGEGLEWIGWIYPGSGNTKYNEKFKGKATLTVDTSSSTAYMQLSSLTSEDSAVYFCARGGKFAMDYWGQGTSVTVSS
VL: DVVMTQTPLSLPVSLGDQASISCRSSQSLVHSNGNTYLYWYLQKPGQSPKPLIYRVSNRFSGVPDRFSGSGSGTDFTLKISRVEAEDLGVYFCFQGTHVPYTFGGGTRLEIK
The EC50 (read off the curve) is the concentration giving half of the maximal effect. A high value points to weaker potency. As usually defined, the Kd is the constant that tells how readily two partners part at equilibrium. A high value points to a looser complex. As for B2, the EC50 (read off the curve) in experiment [4] and in experiment [6] was 10 ng/mL throughout. For the same molecule, the Kd in experiment [5] amounted to 4.79 nM.

B3: mouse IgG2a mAb 735 (mo735) (antibody, V domains shown)
VH: QIQLQQSGPELVRPGASVKISCKASGYTFTDYYIHWVKQRPGEGLEWIGWIYPGSGNTKYNEKFKGKATLTVDTSSSTAYMQLSSLTSEDSAVYFCARGGKFAMDYWGQGTSVTVSS
VL: DVVMTQTPLSLPVSLGDQASISCRSSQSLVHSNGNTYLYWYLQKPGQSPKPLIYRVSNRFSGVPDRFSGSGSGTDFTLKISRVEAEDLGVYFCFQGTHVPYTFGGGTRLEIK
In turn, B3 gave a concentration giving a half-maximal response (EC50 (read off the curve)) in experiment [7] of 10 ng/mL. Moreover, in experiment [5], the dissociation constant Kd is 10.2 nM.

B4: Lorvotuzumab DM1: CD56-targeting antibody-drug conjugate, literature (conjugate, chains of the INN, looked up)
VH: QVQLVESGGGVVQPGRSLRLSCAASGFTFSSFGMHWVRQAPGKGLEWVAYISSGSFTIYYADSVKGRFTISRDNSKNTLYLQMNSLRAEDTAVYYCARMRKGYAMDYWGQGTLVTVSS
VL: DVVMTQSPLSLPVTLGQPASISCRSSQIIIHSDGNTYLEWFQQRPGQSPRRLIYKVSNRFSGVPDRFSGSGSGTDFTLKISRVEAEDVGVYYCFQGSHVPHTFGQGTKVEIK
modifications: DM1 mertansine payload
notes: CD56-targeting antibody-drug conjugate, literature
For orientation: EC50 means the concentration at which the effect is half-maximal. As to B4, the EC50 in experiment [8] is 0.2 to 5 nM.
